These results are taken from IntAct's records for PubMed 15611164.

Sequences and labels used below:
B1: Ankyrin repeat-containing protein YAR1 (Saccharomyces cerevisiae), P46683 (parent)
chain: MGLHSEPLDQEDQDTIILDARAGDLDSLKDIFTTLVSPELLSTCKESESDSTALHMAAANGHIETVRYILETVSRANSAEDLKAFVNEVNKTGNTALHWASLNGKLDVVKLLCDEYEADPFIRNKFGHDAIFEAENSGKEEVETYFLKKYDVEPEDDEEDTQTEGKNSVQITKGTEIEQVTKEATEALREETEKLNINKD
partner: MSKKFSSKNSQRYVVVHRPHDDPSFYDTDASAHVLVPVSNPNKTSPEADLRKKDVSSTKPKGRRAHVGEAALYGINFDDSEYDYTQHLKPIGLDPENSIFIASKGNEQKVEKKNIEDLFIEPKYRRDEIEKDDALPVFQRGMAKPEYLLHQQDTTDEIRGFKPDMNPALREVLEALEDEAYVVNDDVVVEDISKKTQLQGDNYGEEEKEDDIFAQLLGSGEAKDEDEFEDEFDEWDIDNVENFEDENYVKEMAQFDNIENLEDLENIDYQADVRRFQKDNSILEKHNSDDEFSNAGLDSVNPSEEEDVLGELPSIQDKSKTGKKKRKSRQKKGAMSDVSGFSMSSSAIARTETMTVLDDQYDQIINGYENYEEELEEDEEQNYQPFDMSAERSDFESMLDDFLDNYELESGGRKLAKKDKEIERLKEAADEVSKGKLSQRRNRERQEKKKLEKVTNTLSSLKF

In this test the parent is B1. The following applies: with ltv1_yeast LTV1, P34078.
Turning to MGLHSEPLDQEDQDTIILDARAGDLDSLKDIFTTLVSPELLSTCKESESDSTALHMAAANGHIETVRYILETVSRANSAEDLKAFVNEVNATGNTALHWASLNGKLDVVKLLCDEYEADPFIRNKFGHDAIFEAENSGKEEVETYFLKKYDVEPEDDEEDTQTEGKNSVQITKGTEIEQVTKEATEALREETEKLNINKD [K91A], the “effect of a mutation on the interaction” value is on record as “decreasing interaction”.

Take MGLHSEPLDQEDQDTIILDARAGDLDSLKDIFTTLVSPELLSTCKESESDSTALHMAAANGHIETVRYILETVSRANSAEDLKAFVNEVNKTGNTALHWASLNGKLDVVKLLCDEYEADPFIRNAFGHDAIFEAENSGKEEVETYFLKKYDVEPEDDEEDTQTEGKNSVQITKGTEIEQVTKEATEALREETEKLNINKD [K125A]: the “effect of a mutation on the interaction” value is “decreasing interaction”.
